The values below are quoted from earlier work in patent US5168102A, “Endocrine manipulation to improve body composition of poultry” (priority 1990, dated 1992).

No end group written: not given here.

For series [1] the following is noted: i.v., 21 days, cited from earlier work.
For series [2] the following is noted: injection, finishing pigs; cited from earlier work.

“GRF: GH-releasing factor; human GRF is a 44 amino acid polypeptide hormone (YADAIFTNSYRKVLGQLSARKLLQDIMSRQQGESNQERGARARL-NH2; ends and bridges not checked; UniProt P01286 32-75, looked up)”: in series [1], the “plasma GH levels” value was “elevated plasma GH levels”. The “growth rate and feed efficiency” value in series [1] (TRH 1 or 10 μg/kg/day, GRF 10 μg/kg/day, alone or in combination) is recorded as “failed to stimulate growth rate or improve feed efficiency”.

B1: pGH: purified porcine growth hormone (pGH) (protein, UniProt P01248 27-216, looked up)
Somatotropin: FPAMPLSSLFANAVLRAQHLHQLAADTYKEFERAYIPEGQRYSIQNAQAAFCFSETIPAPTGKDEAQQRSDVELLRFSLLLIQSWLGPVQFLSRVFTNSLVFGTSDRVYEKLKDLEEGIQALMRELEDGSPRAGQILKQTYDKFDTNLRSDDALLKNYGLLSCFKKDLHKAETYLRVMKCRRFVESSCAF
Regarding B1, in series [2], the “carcass fat content, reduction” value is 18-25%; the “feed conversion, improvement” value is 7-19%; the “growth rate, increase” value is 10-14%; the “muscle mass, increase” value is 24-36%.
